Patent US20250270319A1 (Alector, published 2025)

Assays:
[1] = target: T1, human CD33 on primary human dendritic cells (human, UniProt P20138 18-364); test: cell-based or functional assay
[2] = target: T2, recombinant cynomolgus CD33 protein (NovoProtein) (cynomolgus); test: ELISA, plate coated with recombinant CD33
T2 construct: Bought protein; also called cyno CD33

[3] = target: T3, recombinant human CD33 protein (Sino Biologicals) (human, UniProt P20138 18-259); test: ELISA, plate coated with recombinant CD33
T3 construct: Bought protein; also called recombinant CD33

[4] = target: T1, human CD33 on primary human dendritic …; test: cell-based or functional assay; remark: listed apart in the source

T1 sequence (P20138 18-364): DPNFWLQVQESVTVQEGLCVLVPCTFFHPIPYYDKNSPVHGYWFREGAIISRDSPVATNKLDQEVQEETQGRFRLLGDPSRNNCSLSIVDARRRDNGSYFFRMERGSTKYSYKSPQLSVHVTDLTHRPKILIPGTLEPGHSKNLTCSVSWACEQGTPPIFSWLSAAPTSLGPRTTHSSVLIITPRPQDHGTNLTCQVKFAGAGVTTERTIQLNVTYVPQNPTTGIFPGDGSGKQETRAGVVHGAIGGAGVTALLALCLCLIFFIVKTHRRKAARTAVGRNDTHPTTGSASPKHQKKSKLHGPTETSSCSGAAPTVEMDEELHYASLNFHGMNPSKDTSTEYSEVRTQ
T2 sequence (chain, as listed by the source limits assumed): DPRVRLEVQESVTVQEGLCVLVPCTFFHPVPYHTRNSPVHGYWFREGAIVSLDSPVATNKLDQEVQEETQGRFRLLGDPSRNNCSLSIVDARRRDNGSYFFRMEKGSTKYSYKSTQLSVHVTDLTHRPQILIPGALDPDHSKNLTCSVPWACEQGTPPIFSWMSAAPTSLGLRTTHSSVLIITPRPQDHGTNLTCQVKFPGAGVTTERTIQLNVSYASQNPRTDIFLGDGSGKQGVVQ
T3 sequence (P20138 18-259 limits assumed): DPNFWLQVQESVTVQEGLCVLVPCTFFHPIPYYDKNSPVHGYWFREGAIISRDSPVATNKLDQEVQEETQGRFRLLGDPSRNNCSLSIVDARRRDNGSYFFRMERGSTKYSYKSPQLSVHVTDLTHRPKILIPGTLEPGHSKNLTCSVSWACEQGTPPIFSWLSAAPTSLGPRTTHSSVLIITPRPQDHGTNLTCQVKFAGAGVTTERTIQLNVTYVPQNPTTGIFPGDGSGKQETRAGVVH

Binder	Fold increase in potency compared to 6C7H5 [1] [fold]	Receptor downregulation, (EC50) (pM) [1] [pM]	Relative maximal binding (cyno/human) [2]	EC50 [3] [nM]	Fold change in potency from IgG1 [4] [fold]	Maximal downregulation (% CD33 remaining) [4] [% CD33 remaining]	Receptor downregulation, (pM, EC50) [4] [pM]	EC50 [2] [nM]	Relative potency (human/cyno) [2]
anti-CD33 antibody 6C7H42 (antibody, V domains shown, VH/VL only) VH: EVQLVESGGGLVQPGGSLRLSCAASGFTFSEYDMLWVRQAPGKGLEWVGEIRLKSNNYVTNYAASVKGRFTISRDDTKNSVYLQMNSLKTEDTGVYYCTRAGYYVPFAYWGQGTLVTVSS VL: QPMLTQSPSASASLGASVKLTCTLSSQHSTYTIEWYQQQPGKGPRYLMELKKEGSHSTGDGIPDRFSGSSSGAERYLTISSLQSEDEADYYCGVGLTIKEQFVYVFGGGTKLTVL	1.1	39.4	0.08	0.2					
6C7H10 IgG2 (antibody) chain 1: EVQLVESGGGLVQPGGSLRLSCAASGFTFSEYAMNWVRQAPGKGLEWVGEIRLKSNNYVTNYAASVKGRFTISRDDSKNSVYLQMNSLKTEDTGVYYCTRAGYYVPFAYWGQGTLVTVSSASTKGPSVFPLAPCSRSTSESTAALGCLVKDYFPEPVTVSWNSGALTSGVHTFPAVLQSSGLYSLSSVVTVPSSNFGTQTYTCNVDHKPSNTKVDKTVERKCCVECPPCPAPPVAGPSVFLFPPKPKDTLMISRTPEVTCVVVDVSHEDPEVQFNWYVDGVEVHNAKTKPREEQFNSTFRVVSVLTVVHQDWLNGKEYKCKVSNKGLPAPIEKTISKTKGQPREPQVYTLPPSREEMTKNQVSLTCLVKGFYPSDIAVEWESNGQPENNYKTTPPMLDSDGSFFLYSKLTVDKSRWQQGNVFSCSVMHEALHNHYTQKSLSLSPGK chain 2: QLVLTQSPSASASLGASVKLTCTLSSQHSTYTIEWYQQQPEKGPRYLMELKKEGSHSTGDGIPDRFSGSSSGAERYLTISSLQSEDEADYYCGVGDTIKEQFVYVFGGGTKLTVL					1.01	24.2	772		
6C7H10 IgG1 SELF (antibody) chain 1: not shown chain 2: QLVLTQSPSASASLGASVKLTCTLSSQHSTYTIEWYQQQPEKGPRYLMELKKEGSHSTGDGIPDRFSGSSSGAERYLTISSLQSEDEADYYCGVGDTIKEQFVYVFGGGTKLTVL					25.8	19.6	30.1		
6C7H8 IgG1 LALAPS (antibody, V domains shown) VH: EVQLVESGGGLVQPGGSLRLSCAGSGFTFSNYCMNWVRQAPGKGLEWVAEIRLKSNNYVTNYAASVKGRFTISRDDSKNSVYLQMNSLKTEDTGVYYCTRAGYYVPFAYWGQGTLVTVSS VL: QLVLTQSPSASASLGASVKLTCTLSSQHSTYTIEWYQQQPEKGPRYLMELKKEGSHSTGDGIPDRFSGSSSGAERYLTISSLQSEDEADYYCGVGDTIKEQFVYVFGGGTKLTVL					0.93	67.4	83.7		
anti-CD33 antibody 6C7H50 (antibody, V domains shown, VH/VL only) VH: EVQLVESGGGLVQPGGSLRLSCAASGFTFSEYDMLWVRQAPGKGLEWVGEIRLKSNNYVTNYAASVKGRFTISRDDSKNSVYLQMNSLKTEDTGVYYCTRAGYYVPFAYWGQGTLVTVSS VL: QLMLTQSPSASASLGASVKLTCTLSSQHSTYTIEWYQQQPGKGPRYLMELKKEGSHSTGDGIPDRFSGSSSGAERYLTISSLQSEDEADYYCGVGHTIKEQFVYVFGGGTKLTVL	0.7	57.8	0.21	0.22					
anti-CD33 antibody 6C7H48 (antibody, V domains shown, VH/VL only) VH: EVQLVESGGGLVQPGGSLRLSCAGSGFTFSNYEMNWVRQAPGKGLEWVAEIRLKSNNYVTNYAASVKGRFTISRDDSKNSVYLQMNSLKTEDTGVYYCTRAGYYVPFAYWGQGTLVTVSS VL: QPMLTQSPSASASLGASVKLTCTLSSQHSTYTIEWYQQQPGKGPRYLMELKKEGSHSTGDGIPDRFSGSSSGAERYLTISSLQSEDEADYYCGVGLTIKEQFVYVFGGGTKLTVL	0.8	56.3	0.53	0.17				1.19	0.14
anti-CD33 antibody 6C7H51 (antibody, V domains shown, VH/VL only) VH: EVQLVESGGGLVQPGGSLRLSCAASGFTFSEYAMLWVRQAPGKGLEWVGEIRLKSNNYVTNYAASVKGRFTISRDDSKNSVYLQMNSLKTEDTGVYYCTRAGYYVPFAYWGQGTLVTVSS VL: QPVLTQSPSASASLGASVKLTCTLSSQHSTYTIEWYQQQPEKGPRYLMELKKEGSHSTGDGIPDRFSGSSSGAERYLTISSLQSEDEADYYCGVGVTIKEQFVYVFGGGTKLTVL	1	42.4	0.08	0.19					
anti-CD33 antibody 6C7H46 (antibody, V domains shown, VH/VL only) VH: EVQLVESGGGLVQPGGSLRLSCAASGFTFSEYAMLWVRQAPGKGLEWVGEIRLKSNNYVTNYAASVKGRFTISRDDSKNSVYLQMNSLKTEDTGVYYCTRAGYYVPFAYWGQGTLVTVSS VL: QPMLTQSPSASASLGASVKLTCTLSSQHSTYTIEWYQQQPGKGPRYLMELKKEGSHSTGDGIPDRFSGSSSGAERYLTISSLQSEDEADYYCGVGLTIKEQFVYVFGGGTKLTVL	0.7	61.7	0.23	0.19				16.8	0.01
anti-CD33 antibody 6C7H52 (antibody, V domains shown, VH/VL only) VH: EVQLVESGGGLVQPGGSLRLSCAASGFTFSEYAMLWVRQAPGKGLEWVGEIRLKSNNYVTNYAASVKGRFTISRDDSKNSVYLQMNSLKTEDTGVYYCTRAGYYVPFAYWGQGTLVTVSS VL: QLMLTQSPSASASLGASVKLTCTLSSQHSTYTIEWYQQQPGKGPRYLMELKKEGSHSTGDGIPDRFSGSSSGAERYLTISSLQSEDEADYYCGVGHTIKEQFVYVFGGGTKLTVL	0.9	47.7	0.47	0.23				1.7	0.14
anti-CD33 antibody 6C7H43 (antibody, V domains shown, VH/VL only) VH: EVQLVESGGGLVQPGGSLRLSCAASGFTFSEYDMLWVRQAPGKGLEWVGEIRLKSNNYVTNYAASVKGRFTISRDDSKNSVYLQMNSLKTEDTGVYYCTRAGYYVPFAYWGQGTLVTVSS VL: QLMLTQSPSASASLGASVKLTCTLSSQHSTYTIEWYQQQPGKGPRYLMELKKEGSHSTGDGIPDRFSGSSSGAERYLTISSLQSEDEADYYCGVGHTIKEQFVYEFGGGTKLTVL	0.9	49.8	0.11	0.17					
anti-CD33 antibody 6C7H45 (antibody, V domains shown, VH/VL only) VH: EVQLVESGGGLVQPGGSLRLSCAASGFTFSEYAMLWVRQAPGKGLEWVGEIRLKSNNYVTNYAASVKGRFTISRDDSKNSVYLQMNSLKTEDTGVYYCTRAGYYVPFAYWGQGTLVTVSS VL: QLMLTQSPSASASLGASVKLTCTLSSQHSTYTIEWYQQQPGKGPRYLMELKKEGSHSTGDGIPDRFSGSSSGAERYLTISSLQSEDEADYYCGVGHTIKEQFVYEFGGGTKLTVL	1	44.5	0.31	0.15					
anti-CD33 antibody 6C7H44 (antibody, V domains shown, VH/VL only) VH: EVQLVESGGGLVQPGGSLRLSCAASGFTFSEYDMLWVRQAPGKGLEWVGEIRLKSNNYVTNYAASVKGRFTISRDDSKNSVYLQMNSLKTEDTGVYYCTRAGYYVPFAYWGQGTLVTVSS VL: QPMLTQSPSASASLGASVKLTCTLSSQHSTYTIEWYQQQPGKGPRYLMELKKEGSHSTGDGIPDRFSGSSSGAERYLTISSLQSEDEADYYCGVGLTIKEQFVYVFGGGTKLTVL	0.9	45.7	0.09	0.18					
anti-CD33 antibody 6C7H47 (antibody, V domains shown, VH/VL only) VH: EVQLVESGGGLVQPGGSLRLSCAGSGFTFSNYEMNWVRQAPGKGLEWVAEIRLKSNNYVTNYAASVKGRFTISRDDSKNSVYLQMNSLKTEDTGVYYCTRAGYYVPFAYWGQGTLVTVSS VL: QLMLTQSPSASASLGASVKLTCTLSSQHSTYTIEWYQQQPGKGPRYLMELKKEGSHSTGDGIPDRFSGSSSGAERYLTISSLQSEDEADYYCGVGHTIKEQFVYEFGGGTKLTVL	0.7	59	0.43	0.22				0.42	0.52
anti-CD33 antibody 6C7H53 (antibody, V domains shown, VH/VL only) VH: EVQLVESGGGLVQPGGSLRLSCAGSGFTFSNYEMNWVRQAPGKGLEWVAEIRLKSNNYVTNYAASVKGRFTISRDDSKNSVYLQMNSLKTEDTGVYYCTRAGYYVPFAYWGQGTLVTVSS VL: QPVLTQSPSASASLGASVKLTCTLSSQHSTYTIEWYQQQPEKGPRYLMELKKEGSHSTGDGIPDRFSGSSSGAERYLTISSLQSEDEADYYCGVGVTIKEQFVYVFGGGTKLTVL	1.2	35.4	0.39	0.18				25.6	0.01
